# Results as given in article PMC11423790, “Structural Insights into the Diversity and DNA Cleavage Mechanism of Fanzor”.
# B1: SpuFz1 omegaRNA + ds2 (mixed)
# RNA: GUUUUCCGAGCCGGUUGUCGCGCGGUUCAAUCCCUGGUGCGGGUGCUAGUGCCAAUACCCACCGGCUCCGCACUAUCUAUAGGUUAUGA
# DNA 1: ATTCGAGCTCGGTACCCGGGCATATCTATAGGTTATGAAATCAAATTACAAATA
# DNA 2: TATTTGTAATTTGATTTCATAACCTATAGATATGCCCGGGTACCGAGCTCGAAT
# modifications: phosphorothioates, TS partially modified, NTS unmodified
# B2: SpuFz1 omegaRNA + ds5 (mixed)
# RNA: B1 RNA
# DNA 1: B1 DNA 1
# DNA 2: B1 DNA 2
# modifications: phosphorothioates, TS fully modified, NTS unmodified
# B3: SpuFz1 omegaRNA + ds3 (mixed)
# RNA: B1 RNA
# DNA 1: B1 DNA 1
# DNA 2: B1 DNA 2
# modifications: phosphorothioates, NTS partially modified, TS unmodified
# B4: SpuFz1 omegaRNA + ds6 (mixed)
# RNA: B1 RNA
# DNA 1: B1 DNA 1
# DNA 2: B1 DNA 2
# modifications: phosphorothioates, NTS fully modified, TS unmodified
# Experiments:
# Conditions in all cases: protein: recombinant; tags: 10xHis-MBP N-terminal; blunt DNA 54 bp; R-loop
# SpuFz1 [1] = target: T1, SpuFz1 (Spizellomyces punctatus ATCC 48900, UniProt A0A0L0H5U9 1-622); test: cryo-EM structure; State I, 8-bp heteroduplex; RNP purification buffer 20 mM HEPES pH 7.5, 150 mM NaCl, 2 mM MgCl2, 4.5 mM TCEP, 4 C; ternary complex assembly conditions not in the material
# T1 sequence (A0A0L0H5U9 entry or part of it): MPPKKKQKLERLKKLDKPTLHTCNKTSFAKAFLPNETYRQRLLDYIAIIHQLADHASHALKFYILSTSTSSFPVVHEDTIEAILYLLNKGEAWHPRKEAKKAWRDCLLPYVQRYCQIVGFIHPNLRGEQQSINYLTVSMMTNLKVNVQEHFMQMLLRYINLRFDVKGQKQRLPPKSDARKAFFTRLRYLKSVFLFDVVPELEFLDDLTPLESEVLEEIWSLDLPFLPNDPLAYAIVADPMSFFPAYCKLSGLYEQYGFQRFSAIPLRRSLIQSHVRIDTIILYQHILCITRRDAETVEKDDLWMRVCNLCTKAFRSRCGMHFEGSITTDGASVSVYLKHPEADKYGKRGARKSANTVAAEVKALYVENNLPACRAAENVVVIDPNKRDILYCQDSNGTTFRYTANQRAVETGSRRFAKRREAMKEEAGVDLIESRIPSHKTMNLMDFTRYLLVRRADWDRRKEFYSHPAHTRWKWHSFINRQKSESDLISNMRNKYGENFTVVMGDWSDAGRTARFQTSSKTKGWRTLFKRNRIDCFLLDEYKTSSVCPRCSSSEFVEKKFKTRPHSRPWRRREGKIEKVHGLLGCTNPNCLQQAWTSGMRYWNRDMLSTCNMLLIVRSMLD
# SpuFz1 [2] = target: T1, SpuFz1; test: cryo-EM structure; State V, 15-bp heteroduplex, lid down; RNP purification buffer 20 mM HEPES pH 7.5, 150 mM NaCl, 2 mM MgCl2, 4.5 mM TCEP, 4 C; ternary complex assembly conditions not in the material
# SpuFz1 [3] = target: T1, SpuFz1; test: cryo-EM structure; State IV, dsDNA unwound on RuvC; RNP purification buffer 20 mM HEPES pH 7.5, 150 mM NaCl, 2 mM MgCl2, 4.5 mM TCEP, 4 C; ternary complex assembly conditions not in the material
# SpuFz1 [4] = target: T1, SpuFz1; test: cryo-EM structure; State VI, 15-bp heteroduplex, weak lid density; RNP purification buffer 20 mM HEPES pH 7.5, 150 mM NaCl, 2 mM MgCl2, 4.5 mM TCEP, 4 C; ternary complex assembly conditions not in the material
binder,measurement,setting,value
B1,binding result,SpuFz1 [1],binds
B2,binding result,SpuFz1 [2],binds
B3,binding result,SpuFz1 [3],binds
B4,binding result,SpuFz1 [4],binds
